Key:
[1] = biological target: T1, DrmA(∆loop) / DrmA(∆TL);DrmB (Serratia sp. SCBI;Serratia sp. SCBI, UniProt A0A979HMQ0;A0A979HMQ1 1-1325;1-619, del181-233|); test: EMSA; 1 µM protein; EMSA: 150 mM NaCl, 25 mM HEPES pH 7.4, 30 min room temperature, 5 nM DNA; 1.5% agarose, 1x TBE; conditions: protein: recombinant;recombinant, tags: none stated;tagged (Ni-NTA purification), copies: 1;1, label: 5'-Cy5 on strand 1
[2] = biological target: T2, DrmA;DrmB (Serratia sp. SCBI;Serratia sp. SCBI, UniProt A0A979HMQ0;A0A979HMQ1 1-1325;1-619, |); test: as above; conditions: protein: recombinant;recombinant, tags: none stated;tagged (Ni-NTA purification), copies: 1;1, label: 5'-Cy5 on strand 1
[3] = biological target: T2, DrmA;DrmB; test: EMSA; binding at 1 µM protein or higher; smeared (dissociation); EMSA: 150 mM NaCl, 25 mM HEPES pH 7.4, 30 min room temperature, 5 nM DNA; 1.5% agarose, 1x TBE; conditions: protein: recombinant;recombinant; tags: none stated;tagged (Ni-NTA purification); copies: 1;1; label: 5'-Cy5; single strand
[4] = biological target: T1, DrmA(∆loop) / DrmA(∆TL);DrmB; test: EMSA; no dissociation smear; second super-shift at 1 µM or higher; EMSA: 150 mM NaCl, 25 mM HEPES pH 7.4, 30 min room temperature, 5 nM DNA; 1.5% agarose, 1x TBE; conditions: protein: recombinant;recombinant; tags: none stated;tagged (Ni-NTA purification); copies: 1;1; label: 5'-Cy5; single strand
[5] = biological target: T2, DrmA;DrmB; test: cryo-EM; 1 mM ADP; EMSA: 150 mM NaCl, 25 mM HEPES pH 7.4, 30 min room temperature, 5 nM DNA; 1.5% agarose, 1x TBE; conditions: protein: recombinant;recombinant; tags: none stated;tagged (Ni-NTA purification); copies: 1;1; label: none; hairpin; 19-bp stem, 5-nt loop, 5' tail 7 nt, 3' tail 21 nt (Methods: 6 and 20)

B1: 3'ovh DNA (75-nt + 5' block) (mixed)
DNA 1: ATTTTGACAGCCCACATGGCTTGATGAGTGGCGCACTCGCCAGCCTGAGCATGGCGAAAACTCCTCCAGTCTGCT
DNA 2: GCCATGTGGGCTGTCAAAAT
**Q.** Which results are given for B1?
**A.** binding result ([1]; 3' overhang 55 nt): binds; binding result ([2]; 3' overhang 55 nt): no binding

B2: 75-nt Cy5 ssDNA (ssDNA)
DNA: B1 DNA 1
**Q.** Does B2 bind [3]?
**A.** Result: binds

**Q.** Does B2 bind [4]?
**A.** Result: binds

B3: 5'ovh DNA (75-nt + 3' block) (mixed)
DNA 1: B1 DNA 1
DNA 2: AGCAGACTGGAGGAGTTTTC
**Q.** Does B3 bind ([1]; 5' overhang 55 nt)?
**A.** Result: binds

**Q.** Does B3 bind ([2]; 5' overhang 55 nt)?
**A.** Result: binds

B4: 75-bp dsDNA (dsDNA)
DNA 1: B1 DNA 1
DNA 2: AGCAGACTGGAGGAGTTTTCGCCATGCTCAGGCTGGCGAGTGCGCCACTCATCAAGCCATGTGGGCTGTCAAAAT
**Q.** Does B4 bind ([1]; blunt)?
**A.** Result: binds

**Q.** Does B4 bind ([2]; blunt)?
**A.** Result: no binding

B5: DNA stem loop (forked hairpin) (structured_DNA)
DNA: TTTTTTTCATCGATGAGCACTGCTATTCCCTAGCAGTGCTCATCGATGATTTTCATCGATGAGCGGTTTT
modifications: none (unmethylated)
**Q.** Does B5 bind [5]?
**A.** Result: binds

From paper PMC9142583, “Structural basis for broad anti-phage immunity by DISARM” (Nature Communications, 2022)
